{"source": "patent US20250333749A1", "about": "“INDUCIBLE PROMOTER, VECTOR AND HOST CELL BASED THEREON” (JOINT STOCK COMPANY «BIOCAD», priority 2021, published 2025)", "key": {"[1]": {"test_system": "HEK293 Nf-kB reporter line", "assay": "Activation of HEK293 Nf-kB reporter line by PMA (luciferase)", "assay_type": "cell-based", "details": "24 hours incubation; FIG. 5", "method": "(§1) We used a PMA activator to screen clonal reporter lines. This agent directly effects protein kinase C, thus triggering signaling cascades that activate the reporter gene expression (https://doi.org/10.1007/s11373-005-1210-5; doi: 10.1093/carcin/bgm261). To determine the optimal dose of PMA, we conducted experiments involving activation of the HEK293 Nf-kB reporter line. Cells were seeded in a white 96-well culture plate for adhesion cultures at 3*10^5 cells per well, and PMA activator was added at concentrations indicated in the graph up to 150 μl in a well. All solutions were prepared in DMEM growth medium supplemented with 10% fetal bovine serum, 2 mM L-glutamine and 10 μg/ml gentamicin. The plate was incubated for 24 hours at 37° C. in a humid atmosphere in the presence of 5% CO2. Following incubation, the wells were drained, and 100 μl of luciferin substrate with a lysing component was added, the plate was left in the dark for 10 minutes, after which the luminescence level was detected using a plate reader using the SparkControl V2.1 software package (Tecan, Austria)."}, "[2]": {"molecular_target": "AXL receptor expressed on HEK293 reporter cells (HEK293_STAT3-STAT5-AP1_FLuc_AXL; HEK293_AXL_STAT3-STAT5-AP1_FLuc) (UniProt P30530)", "sequence (P30530 26-894 limits assumed)": "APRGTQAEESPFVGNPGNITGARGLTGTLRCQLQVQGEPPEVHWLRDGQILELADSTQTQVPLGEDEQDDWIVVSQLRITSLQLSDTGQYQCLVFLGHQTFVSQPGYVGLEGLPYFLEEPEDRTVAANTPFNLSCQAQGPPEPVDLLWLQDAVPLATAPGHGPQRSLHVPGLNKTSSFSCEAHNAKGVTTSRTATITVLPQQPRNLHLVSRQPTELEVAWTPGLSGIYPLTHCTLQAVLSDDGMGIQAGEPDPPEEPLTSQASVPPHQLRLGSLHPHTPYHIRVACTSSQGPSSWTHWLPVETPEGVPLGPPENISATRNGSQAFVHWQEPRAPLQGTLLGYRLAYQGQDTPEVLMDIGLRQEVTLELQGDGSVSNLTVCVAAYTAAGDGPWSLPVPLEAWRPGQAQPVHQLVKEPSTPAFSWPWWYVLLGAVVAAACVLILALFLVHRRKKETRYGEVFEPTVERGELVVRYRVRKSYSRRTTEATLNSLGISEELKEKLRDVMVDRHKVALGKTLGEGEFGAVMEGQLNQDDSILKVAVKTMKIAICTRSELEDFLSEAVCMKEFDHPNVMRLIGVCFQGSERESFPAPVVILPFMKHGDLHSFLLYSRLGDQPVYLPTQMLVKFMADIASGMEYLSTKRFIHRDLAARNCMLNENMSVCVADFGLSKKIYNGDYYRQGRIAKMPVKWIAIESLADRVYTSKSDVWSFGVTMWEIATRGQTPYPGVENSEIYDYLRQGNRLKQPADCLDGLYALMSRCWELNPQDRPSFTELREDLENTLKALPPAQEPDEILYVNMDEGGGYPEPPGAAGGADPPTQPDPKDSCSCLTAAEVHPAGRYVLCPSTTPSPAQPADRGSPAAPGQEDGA", "assay": "cell-based or functional assay"}, "[3]": {"test_system": "HEK293-STAT3-STAT5-AP1_FLuc_IL10R cells (IL-10 receptor)", "assay": "IL10 activity determination test (luciferase expression activation)", "assay_type": "cell-based, human", "details": "various concentrations of IL10; FIG. 8", "method": "as §1\nTo evaluate the reporter line in a specific cell test, we expressed the IL-10 receptor onto the surface of the reporter cells. To this end, the HEK293_STAT3-STAT5-AP1_FLuc reporter cell line produced in Example 4 was transfected with plasmid vectors encoding IL-10 receptor subunits produced in Example 2. […]"}}}
{"molecule": "CCCCCCCCCCCCCC(=O)O[C@@H]1[C@@H](C)[C@@]2(O)[C@@H](C=C(CO)C[C@]3(O)C(=O)C(C)=C[C@@H]23)[C@@H]2C(C)(C)[C@]12OC(C)=O", "note": "[PMA]", "values": [{"measurement": "optimal concentration of the PMA activator", "setting": "[1]", "value": 33, "unit": "nM"}]}
{"molecule": "AXL ligand GAS6 (from UniProt Q14393 49-678)", "values": [{"measurement": "level of GAS6-dependent activation, well A1 (fold over non-activated cells)", "setting": "[2]", "value": 1.35}, {"measurement": "level of GAS6-dependent activation, well A2 (fold over non-activated cells)", "setting": "[2]", "value": 1.59}, {"measurement": "level of GAS6-dependent activation, well A3 (fold over non-activated cells)", "setting": "[2]", "value": 8.66}, {"measurement": "level of GAS6-dependent activation, well A4 (fold over non-activated cells)", "setting": "[2]", "value": 1.09}, {"measurement": "level of GAS6-dependent activation, well A6 (fold over non-activated cells)", "setting": "[2]", "value": 1.49}, {"measurement": "level of GAS6-dependent activation, well A7 (fold over non-activated cells)", "setting": "[2]", "value": 2.16}, {"measurement": "level of GAS6-dependent activation, well A8 (fold over non-activated cells)", "setting": "[2]", "value": 0.85}, {"measurement": "level of GAS6-dependent activation, well A9 (fold over non-activated cells)", "setting": "[2]", "value": 0.96}, {"measurement": "level of GAS6-dependent activation, well A10 (fold over non-activated cells)", "setting": "[2]", "value": 6.93}, {"measurement": "level of GAS6-dependent activation, well A11 (fold over non-activated cells)", "setting": "[2]", "value": 1.54}, {"measurement": "level of GAS6-dependent activation, well B1 (fold over non-activated cells)", "setting": "[2]", "value": 1.09}, {"measurement": "level of GAS6-dependent activation, well B2 (fold over non-activated cells)", "setting": "[2]", "value": 2.12}, {"measurement": "level of GAS6-dependent activation, well B3 (fold over non-activated cells)", "setting": "[2]", "value": 1.33}, {"measurement": "level of GAS6-dependent activation, well B4 (fold over non-activated cells)", "setting": "[2]", "value": 1.28}, {"measurement": "level of GAS6-dependent activation, well B5 (fold over non-activated cells)", "setting": "[2]", "value": 1.5}, {"measurement": "level of GAS6-dependent activation, well B6 (fold over non-activated cells)", "setting": "[2]", "value": 0.99}, {"measurement": "level of GAS6-dependent activation, well B7 (fold over non-activated cells)", "setting": "[2]", "value": 1.12}, {"measurement": "level of GAS6-dependent activation, well B8 (fold over non-activated cells)", "setting": "[2]", "value": 2.1}, {"measurement": "level of GAS6-dependent activation, well B9 (fold over non-activated cells)", "setting": "[2]", "value": 1.26}, {"measurement": "level of GAS6-dependent activation, well B10 (fold over non-activated cells)", "setting": "[2]", "value": 1.58}, {"measurement": "level of GAS6-dependent activation, well B11 (fold over non-activated cells)", "setting": "[2]", "value": 2.56}, {"measurement": "level of GAS6-dependent activation, well B12 (fold over non-activated cells)", "setting": "[2]", "value": 1.4}, {"measurement": "level of GAS6-dependent activation, well C1 (fold over non-activated cells)", "setting": "[2]", "value": 0.92}, {"measurement": "level of GAS6-dependent activation, well C2 (fold over non-activated cells)", "setting": "[2]", "value": 1.32}, {"measurement": "level of GAS6-dependent activation, well C3 (fold over non-activated cells)", "setting": "[2]", "value": 0.95}, {"measurement": "level of GAS6-dependent activation, well C4 (fold over non-activated cells)", "setting": "[2]", "value": 1.2}, {"measurement": "level of GAS6-dependent activation, well C5 (fold over non-activated cells)", "setting": "[2]", "value": 1.2}, {"measurement": "level of GAS6-dependent activation, well C6 (fold over non-activated cells)", "setting": "[2]", "value": 4.37}, {"measurement": "level of GAS6-dependent activation, well C8 (fold over non-activated cells)", "setting": "[2]", "value": 1.04}, {"measurement": "level of GAS6-dependent activation, well C9 (fold over non-activated cells)", "setting": "[2]", "value": 1.77}, {"measurement": "level of GAS6-dependent activation, well C10 (fold over non-activated cells)", "setting": "[2]", "value": 3.15}, {"measurement": "level of GAS6-dependent activation, well C11 (fold over non-activated cells)", "setting": "[2]", "value": 5.55}, {"measurement": "level of GAS6-dependent activation, well C12 (fold over non-activated cells)", "setting": "[2]", "value": 1.47}, {"measurement": "level of GAS6-dependent activation, well D1 (fold over non-activated cells)", "setting": "[2]", "value": 1.25}, {"measurement": "level of GAS6-dependent activation, well D2 (fold over non-activated cells)", "setting": "[2]", "value": 1.29}, {"measurement": "level of GAS6-dependent activation, well D3 (fold over non-activated cells)", "setting": "[2]", "value": 2.38}, {"measurement": "level of GAS6-dependent activation, well D4 (fold over non-activated cells)", "setting": "[2]", "value": 2.41}, {"measurement": "level of GAS6-dependent activation, well D5 (fold over non-activated cells)", "setting": "[2]", "value": 2.63}, {"measurement": "level of GAS6-dependent activation, well D6 (fold over non-activated cells)", "setting": "[2]", "value": 1.32}, {"measurement": "level of GAS6-dependent activation, well D7 (fold over non-activated cells)", "setting": "[2]", "value": 1.16}, {"measurement": "level of GAS6-dependent activation, well D8 (fold over non-activated cells)", "setting": "[2]", "value": 2.12}, {"measurement": "level of GAS6-dependent activation, well D9 (fold over non-activated cells)", "setting": "[2]", "value": 1.55}, {"measurement": "level of GAS6-dependent activation, well D10 (fold over non-activated cells)", "setting": "[2]", "value": 1.68}, {"measurement": "level of GAS6-dependent activation, well D11 (fold over non-activated cells)", "setting": "[2]", "value": 3.74}, {"measurement": "level of GAS6-dependent activation, well D12 (fold over non-activated cells)", "setting": "[2]", "value": 1.23}, {"measurement": "level of GAS6-dependent activation, well E1 (fold over non-activated cells)", "setting": "[2]", "value": 1.83}, {"measurement": "level of GAS6-dependent activation, well E2 (fold over non-activated cells)", "setting": "[2]", "value": 0.93}, {"measurement": "level of GAS6-dependent activation, well E3 (fold over non-activated cells)", "setting": "[2]", "value": 3.03}, {"measurement": "level of GAS6-dependent activation, well E4 (fold over non-activated cells)", "setting": "[2]", "value": 1.18}, {"measurement": "level of GAS6-dependent activation, well E5 (fold over non-activated cells)", "setting": "[2]", "value": 1.73}, {"measurement": "level of GAS6-dependent activation, well E6 (fold over non-activated cells)", "setting": "[2]", "value": 1.51}, {"measurement": "level of GAS6-dependent activation, well E7 (fold over non-activated cells)", "setting": "[2]", "value": 2.14}, {"measurement": "level of GAS6-dependent activation, well E8 (fold over non-activated cells)", "setting": "[2]", "value": 1.13}, {"measurement": "level of GAS6-dependent activation, well E9 (fold over non-activated cells)", "setting": "[2]", "value": 1.74}, {"measurement": "level of GAS6-dependent activation, well E10 (fold over non-activated cells)", "setting": "[2]", "value": 1.55}, {"measurement": "level of GAS6-dependent activation, well E11 (fold over non-activated cells)", "setting": "[2]", "value": 0.86}, {"measurement": "level of GAS6-dependent activation, well E12 (fold over non-activated cells)", "setting": "[2]", "value": 1.03}, {"measurement": "level of GAS6-dependent activation, well F1 (fold over non-activated cells)", "setting": "[2]", "value": 1.55}, {"measurement": "level of GAS6-dependent activation, well F2 (fold over non-activated cells)", "setting": "[2]", "value": 1.34}, {"measurement": "level of GAS6-dependent activation, well F3 (fold over non-activated cells)", "setting": "[2]", "value": 7.48}, {"measurement": "level of GAS6-dependent activation, well F4 (fold over non-activated cells)", "setting": "[2]", "value": 1.79}, {"measurement": "level of GAS6-dependent activation, well F5 (fold over non-activated cells)", "setting": "[2]", "value": 1.69}, {"measurement": "level of GAS6-dependent activation, well F7 (fold over non-activated cells)", "setting": "[2]", "value": 2.89}, {"measurement": "level of GAS6-dependent activation, well F8 (fold over non-activated cells)", "setting": "[2]", "value": 1.58}, {"measurement": "level of GAS6-dependent activation, well F9 (fold over non-activated cells)", "setting": "[2]", "value": 1.53}, {"measurement": "level of GAS6-dependent activation, well F10 (fold over non-activated cells)", "setting": "[2]", "value": 1.35}, {"measurement": "level of GAS6-dependent activation, well F11 (fold over non-activated cells)", "setting": "[2]", "value": 1.29}, {"measurement": "level of GAS6-dependent activation, well F12 (fold over non-activated cells)", "setting": "[2]", "value": 5.65}, {"measurement": "level of GAS6-dependent activation, well G1 (fold over non-activated cells)", "setting": "[2]", "value": 2.05}, {"measurement": "level of GAS6-dependent activation, well G2 (fold over non-activated cells)", "setting": "[2]", "value": 3.08}, {"measurement": "level of GAS6-dependent activation, well G3 (fold over non-activated cells)", "setting": "[2]", "value": 2.51}, {"measurement": "level of GAS6-dependent activation, well G4 (fold over non-activated cells)", "setting": "[2]", "value": 1.05}, {"measurement": "level of GAS6-dependent activation, well G5 (fold over non-activated cells)", "setting": "[2]", "value": 1.55}, {"measurement": "level of GAS6-dependent activation, well G7 (fold over non-activated cells)", "setting": "[2]", "value": 2.12}, {"measurement": "level of GAS6-dependent activation, well G8 (fold over non-activated cells)", "setting": "[2]", "value": 2.51}, {"measurement": "level of GAS6-dependent activation, well G9 (fold over non-activated cells)", "setting": "[2]", "value": 1.78}, {"measurement": "level of GAS6-dependent activation, well G10 (fold over non-activated cells)", "setting": "[2]", "value": 2.5}, {"measurement": "level of GAS6-dependent activation, well G11 (fold over non-activated cells)", "setting": "[2]", "value": 2.26}, {"measurement": "level of GAS6-dependent activation, well G12 (fold over non-activated cells)", "setting": "[2]", "value": 3.43}, {"measurement": "level of GAS6-dependent activation, well H11 (the pool) (fold over non-activated cells)", "setting": "[2]", "value": 3.61}, {"measurement": "level of GAS6-dependent activation, well H12 (fold over non-activated cells)", "setting": "[2]", "value": 1.94}]}
{"molecule": "IL10: Recombinant human IL10 used as an activator (protein) SPGQGTQSENSCTHFPGNLPNMLRDLRDAFSRVKTFFQMKDQLDNLLLKESLLEDFKGYLGCQALSEMIQFYLEEVMPQAENQDPDIKAHVNSLGENLKTLRLRLRRCHRFLPCENKSKAVEQVKNAFNKLQEKGIYKAMSEFDIFINYIEAYMTMKIRN", "values": [{"measurement": "response of the reporter cell line to IL10 activator", "setting": "[3]", "value": "dose-dependent response"}]}
